Assay results published in patent US20220127569A1, “METHODS OF PROMOTING THYMIC EPITHELIAL CELL AND THYMIC EPITHELIAL CELL PROGENITOR DIFFERENTIATION OF PLURIPOTENT STEM CELLS, RESULTING CELLS, AND USES THEREOF” (THE TRUSTEES OF COLUMBIA UNIVERSITY IN THE CITY OF NEW YORK, priority 2019, published 2022).

How the values were obtained:
NSG mice = test: Teratoma formation after hES-TEP transplantation in mice; format: in vivo, mouse; conditions: mice grafted with day 30 hES-TEPs treated with YM155
Method: Six to ten week old NSG mice were thymectomized as described (Khosravi-Maharlooei et al. 2020) and allowed to recover for at least 3 weeks. After recovery, animals were conditioned with 1.8 Gy total body irradiation (TBI) via X-rays. Cryopreserved fetal swine thymus (60-90 days gestation) was thawed in Medium 199 supplemented with DNAse, gentamicin and HEPES as above. Fetal swine fragments (1-2 mm^3) were injected or not with 2×10^5 hES-derived TEPs with a 28 gauge syringe and coated with 50% matrigel (Corning) in Medium 199. Four to 24 hours after TBI, 1-2×10^6 hES-derived TEPs mixed with 1-2×10^6 thymic mesenchymal cells, 1-2×10^6 thymic mesenchymal cells alone, fetal swine thymus injected with hES-TEPs or fetal swine thymus alone were implanted beneath the kidney capsule and 2×10^5 fetal human CD34+ cells were injected intravenously. Peripheral human immune reconstitution was assayed every 2-3 weeks post-grafting after full recovery as indicated. Blood was collected from the tail vein and immune populations enriched by density gradient centrifugation with Ficoll as described above. […] Gene correlations were evaluated with Pearson Correlation Coefficient with p<0.05 considered significant, linear regression was also performed and r-square determined. Euthanasia due to teratoma growth was plotted on a Kaplan-Meyer plot and analyzed by Mantel Cox Log-rank test to determine p-value. […]

pluripotent cells = test: OCT4 expression (qPCR) in day 30 hES-TEP cultures after survivin inhibitor treatment; format: cell-based, human; conditions: YM155 20 nM in the final 24 hours of culture, protocol #4c vs #4c+YM155
Method: After 108 hours in total on low-adherence plates with endoderm induction media (described above), embryoid bodies were collected and, without being trypsinized, plated on matrigel-coated, 24-well tissue culture plates (approximately 50,000-70,000 cells/well) in SFD medium supplemented with 200 ng/mL recombinant human (rh) Noggin and 10 μM SB431542 (NS) (as described in established protocols Green et al. 2011), with Retinoic Acid (0.25 μM) and FGF8b 50 ng/mL (as a novel modification of this protocol) for 48 hours. […]
(§1) Quantitative Real-Time PCR Total RNA from clusters of ES cells differentiated for the indicated time with the indicated culture method was extracted using Trizol (Invitrogen), and Direct-zol RNA Miniprep Kit (Zymo Research) according to the manufacturer's instructions. […] Real-time quantitative PCR was performed in 20 ul volume using ABI Power SYBR Green PCR Master Mix on an ABI ViiA7 Thermocycler (Applied Biosystems Life Technologies). […] Quantification of each gene transcript was obtained by comparing the average of triplicate experimental CT values to a standard curve of serially diluted genomic DNA for each primer target and then normalized by dividing by the CT housekeeping gene b-Actin.

hESCs = test: qPCR gene expression (PAX9, FOXN1) in hESC-derived TEP cultures up to day 30; format: cell-based, human
Method: After 108 hours in total on low-adherence plates with endoderm induction media (described above), embryoid bodies were collected and, without being trypsinized, plated on matrigel-coated, 24-well tissue culture plates (approximately 50,000-70,000 cells/well) in SFD medium supplemented with 200 ng/mL recombinant human (rh) Noggin and 10 μM SB431542 (NS) (as described in established protocols Green et al. 2011), with Retinoic Acid (0.25 μM) and FGF8b 50 ng/mL (as a novel modification of this protocol) for 48 hours. For pharyngeal endoderm, the resulting cells were then treated for 24 hours with FGF8b (50 ng/mL) and Retinoic Acid ([…]) followed by 8 days with FGF8b (50 ng/mL) and Sonic Hedgehog (Shh) (100 ng/mL) (FIG. 1B). For the 3rd pharyngeal pouch specification, cells were then exposed to rhNoggin (200 ng/mL) for 6 days, and then to BMP4 (10 ng/mL) until day 30 of differentiation (FIG. 2A). To avoid the formation of teratomas after engrafting in mice, cells were also exposed to survivin inhibitor YM155 (20 nM) (Lee et al. 2013)) for 24 hours during the last step in the later experiments (FIG. 4A). During the entire process, cell cultures were maintained in a 5% C02/air environment at 37° C. Cells were fed every 24 hours.
as §1, with “instructions. NanoDrop 2000 spectrophotometer (ThermoFisher Scientific) was used to determine RNA concentration.” for “instructions.”

ESCs = test: Flow cytometry / efficiency of definitive endoderm and anterior foregut endoderm induction; format: cell-based, human; conditions: day 4.5 dissociated embryoid bodies
Method: The differentiation was performed as described Huang et al. 2014 in serum-free differentiation (SFD) medium consisting of DMEM/F12 (3:1) (Life Technologies) supplemented with N2 [Gibco (Life Technologies)], B27 (Gibco), ascorbic acid (50 μg/ml, Sigma), Glutamax (2 mM, Life Technologies), monothioglycerol (0.4 μM, Sigma), 0.05% bovine serum albumin (BSA) (Life Technologies) and 1% penicillin-streptomycin (Thermo Fisher Scientific, Waltham, Mass.). Cells were then briefly trypsinized (0.05%, 1 min at 37° C.) into single cell suspension and plated onto low attachment 6-well plates [Costar 2 (Corning Incorporated, Tewksbury Mass.)] to form embryoid bodies in serum-free differentiation medium containing human BMP4, 0.5 ng/ml, human bFGF, 2.5 ng/ml (R&D Systems) and human activin A, 100 ng/ml (R&D Systems) for 84 hours (3.5 days approximately) on low-adherence plates. Embryoid bodies were then collected, briefly trypsinized (0.05%, 1 min at 37° C.) into 3-10 small cell clumps and resuspended again in endoderm induction medium for another 24 hours. Cells were fed every 24-48 hr (depending on the density) and maintained in a 5% CO2/5% O2/90% N2 environment. […]
Human immune reconstitution and differentiation efficiency of hES-TEP cultures were determined by multi-parametric flow cytometry. […]

COCCn1c2c([n+](Cc3cnccn3)c1C)C(=O)c1ccccc1C2=O [YM155]
animals developing teratomas (NSG mice): 3 of 15 | OCT4 expression (pluripotent cells): significantly reduced

B1: BMP4: human Bone Morphogenic Protein 4 (protein, UniProt P12644 293-408, looked up)
Bone morphogenetic protein 4: SPKHHSQRARKKNKNCRRHSLYVDFSDVGWNDWIVAPPGYQAFYCHGDCPFPLADHLNSTNHAIVQTLVNSVNSSIPKACCVPTELSAISMLYLDEYDKVVLKNYQEMVVEGCGCR
expression of FoxN1 (hESCs; BMP4 added to day 15 cultures without prior Noggin, assayed at culture day 22 and 30, protocols #3b and #4b): failed to induce expression | FOXN1 expression day 30 vs day 21 (hESCs; protocol #4c, before and after BMP4 exposure): significantly higher

B2: Noggin: recombinant human Noggin, a BMP4 antagonist and/or inhibitor (protein, UniProt Q13253 28-232, looked up)
Noggin: QHYLHIRPAPSDNLPLVDLIEHPDPIFDPKEKDLNETLLRSLLGGHYDPGFMATSPPEDRPGGGGGAAGGAEDLAELDQLLRQRPSGAMPSEIKGLEFSEGLAQGKKQRLSKKLRRKLQMWLWSQTFCPVLYAWNDLGSRFWPRYVKVGSCFSKRSCSVPEGMVCKPSKSVHLTVLRWRCQRRGGQRCGWIPIQYPIISECKCSC
PAX9 expression (hESCs; Noggin from day 16 to day 22, protocols #3c and #4c vs #3b and #4b, day 30): significantly increased

B3: Activin A: human activin A used in endoderm induction medium (protein, UniProt P08476 311-426, looked up)
Inhibin beta A chain: GLECDGKVNICCKKQFFVSFKDIGWNDWIIAPSGYHANYCEGECPSHIAGTSGSSLSFHSTVINHYRMRGHSPFANLKSCCVPTKLRPMSMLYYDDGQNIIKKDIQNMIVEECGCS
co-expression of endoderm markers EpCAM and CXCR4, cells (ESCs): 98.3%
